How the values were obtained:
OVOL2 WT (Mus musculus) = OVOL2 WT (Mus musculus) (UniProt Q8CIV7); assay: EMSA; settings: 1 nM probe; 53 ng protein; EMSA: 1 nM 5'-biotin DNA probe, room temperature, 30 min (1 h for Fig. 7E), LightShift Chemiluminescent EMSA Kit; specific competitor 4.5 uM where used …
[1] = molecular target: OVOL2 C120Y C120Y (Mus musculus) (UniProt Q8CIV7); assay: EMSA; settings: 1 nM probe; 53 ng or 1.7 ug protein; severely impaired; EMSA: 1 nM 5'-biotin DNA probe, room temperature, 30 min (1 h for Fig. 7E), LightShift Chemiluminescent EMSA Kit; specific competitor 4.5 uM where used …

“AACCGTTACC (double strand) [OVOL2 probe]” was tested, and the binding signal (fold (WT:C120Y DNA binding ability)) (OVOL2 WT (Mus musculus)) was 128 and the binding signal (relative to WT = 128) [1] was 1.

— article PMC10682436
